Results on 2 molecules are retold here after patent publication US20160000860A1 (University of California, published 2016).

To fix the notation:
T1: recombinant human osteogenic protein-1 (rhOP-1, rhBMP-7) (human, UniProt P18075 293-431)
T1 construct: Amine-coupled to a CM-5 sensor chip
T1 sequence (looked up): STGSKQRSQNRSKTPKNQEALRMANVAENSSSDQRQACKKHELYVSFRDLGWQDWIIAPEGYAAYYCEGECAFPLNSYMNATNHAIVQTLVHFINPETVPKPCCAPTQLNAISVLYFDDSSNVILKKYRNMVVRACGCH

T2: spp24 (secreted phosphoprotein, 24 kD), the parental protein of BBP (Bos taurus (Bovine), UniProt Q27967 24-203)
T2 construct: also called the related protein
T2 sequence: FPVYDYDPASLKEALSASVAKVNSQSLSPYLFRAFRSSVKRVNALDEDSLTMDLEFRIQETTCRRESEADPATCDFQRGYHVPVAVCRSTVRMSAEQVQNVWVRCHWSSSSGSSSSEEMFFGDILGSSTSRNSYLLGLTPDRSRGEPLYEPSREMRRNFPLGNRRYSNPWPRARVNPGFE

B1: BMP Binding Peptide (BBP), cyclized synthetic 19 amino acid peptide (peptide)
peptide: CRSTVRMSAEQVQNVWVRC
modifications: disulfide 1-19 (inferred)
notes: it is treated here as the same bovine cyclic peptide; also called cyclized BBP
B2: recombinant human bone morphogenetic protein-2 (rhBMP-2) (ligand, UniProt P12643 283-396, looked up)
chain: QAKHKQRKRLKSSCKRHPLYVDFSDVGWNDWIVAPPGYHAFYCHGECPFPLADHLNSTNHAIVQTLVNSVNSKIPKACCVPTELSAISMLYLDENEKVVLKNYQDMVVEGCGCR
notes: Amine-coupled to a CM-5 sensor chip

Bridges are numbered along the chain shown (N, C = ends). Where no end group is shown, it is not given here.

The target in assay [1] is B2. Put plainly: SPR (Biacore X), ligand amine-coupled to CM-5 chip, Langmuir analysis. On the procedure:
(§1) The supernatant was decanted and used for analyses. Protein concentrations were determined using UV spectroscopy at an absorbance of 280 nm. Extinction coefficients were calculated using ProtParam tool (www.expasy.ch/tools/protparam.html). Flow rates ranged from 5 to 50 μl/min, and injection volumes were 20 to 100 μl. To ensure uniformity, an effort was made to react sufficient ligand to the chip to give a baseline value of about 2500 RU (response units). The kinetic constants kₐ (on rate, association constant, “recognition”) and kd (off rate, dissociation constant, “stability”) as well as the equilibrium constant KD (equilibrium constant, “affinity”) were determined by a Langmuir analysis using BIAevaluation software (version 3.2) installed on the instrument by the manufacturer.
(In general: SPR reads the build-up and loss of mass on a sensor chip optically.)

For assay [2], the target named is T1, recombinant human osteogenic protein-1 …. The assay is described as above. On the procedure:
as §1

The target in assay [3] is recombinant human transforming growth factor-beta (rhTGF-β) (human). Described as above. As for the experimental part: as §1
recombinant human transforming growth factor-beta (rhTGF-β) (human), sequence (P01137 279-390): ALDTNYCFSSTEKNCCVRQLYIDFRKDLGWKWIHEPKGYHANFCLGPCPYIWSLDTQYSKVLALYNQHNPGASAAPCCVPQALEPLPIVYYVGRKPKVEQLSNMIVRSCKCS
Assay [4] has as its target B2. Nature of the assay: cell-based or functional assay.
The target in assay [5] is B2. Nature of the assay: SPR (Biacore X), rhBMP-2 on CM-5 chip, peptide as analyte; rhBMP-2 affixed to the chip; cyclized BBP, not reduced.
In assay [6] the target is T2, spp24 (secreted phosphoprotein, 24 kD), …. Put plainly: SPR (Biacore X), ligand amine-coupled to CM-5 chip, Langmuir analysis. As for the experimental part: as §1

As for B1, the Kd (usually the concentration at which binding is half-saturated) is 53.3 nM in assay [1], 1160 nM in assay [2], 68 nM in assay [3] and ~30000 nM in assay [5]. Moreover, the “retention of labeled rhBMP-2 in collagen sponge implants in rodent muscle pouches” value in assay [4] was ~2 fold.
Regarding B2, in assay [6], the Kd stood at 17.7 nM; the off-rate (koff) – broadly, the rate constant with which the complex falls apart – stood at 0.0055 s⁻¹; the kon (commonly a measure of how fast the partners come together) came out at 311000 M⁻¹ s⁻¹.
